In US20260008852A1 (CRYSTAL BIOSCIENCE, published 2026):
Residue numbers refer to the chain shown, from its start.

B1: 40579p1.H11 (scFv, V domains shown)
VH: EVQLLESGGGLVQPGGSLRLSCAASGFTFDDYGMSWVRQAPGKGLEWVSAIRSKASSYATYYADSVKGRFTVSRDNSENTLYLQMNSLRAEDTAVYYCAKHRSNYYFMDVWGQGTTVTVSS
VL: EIVLTQSPGTLSLSPGERATLSCRASQSVGSDLAWYQQRPGQAPRLLIYAASSRATDIPDRFSGSGSGTDFTLTISSLQSEDFAVYYCQQYYSWPPLTFGGGTKVEIK
notes: Tested as scFv-Fc (Expi293 supernatant)
B2: 40511p1.1.D8 (scFv, V domains shown)
VH: DVQLVESGGGVVRPGESLRLSCAASGFTFSSYAMSWVRQAPGEGLEWVSSISGSGGSTLYADSVKGRFTISRDSSNNSLYLQMNSLRAEDTAVYYCAKARNNFFDYWGLGTLVTVSS
VL: EIVLTQSPGTLTLSPGERATLSCRASRSILTSLAWYQQRPGQAPRLLIYGANSRATGIPDRFSGSGSGTEFTLTISSLQSEDFAVYYCQQYYDWLTITFGGGTKVEIK
notes: as for B1
B3: 40511p1.2.B5 (scFv, V domains shown)
VH: B2 VH
VL: B2 VL with A43T
notes: as for B1
B4: 40511p1.2.A12 (scFv, V domains shown)
VH: DVQLVESGGGVVRPGESLRLSCAASGFTFSSYAESWVRQAPGEGLEWVSIISGSGGNTFYADSVKGRFTISRDNSKNTLYLQMNSLRAEDTAVYYCARFAYGFFDYWGLGTLVTVSS
VL: EIVLTQSPGTLSVSPGERATLSCRASQTVGSKLAWYQQKPGQPPSLLIYDASTRATGIPDRFSGSGSGTDFTLTISSLQSEDFAVYYCQQYRNWPPLTFGGGTKVEIK
notes: Tested as scFv-Fc (Expi293 supernatant); also called 40511p1.2.Al2
B5: 40511p1.1.G1 (scFv, V domains shown)
VH: B4 VH
VL: B4 VL with R18G
notes: as for B1
B6: 40511p1.2.A4 (scFv, V domains shown)
VH: B4 VH
VL: B4 VL with P43A, S45R, G57D
notes: as for B1
B7: 40511p1.1.H10 (scFv, V domains shown)
VH: DVQLVESGGGVVRPGESLRLSCAASGFTFSNYAMNWVRQAPGEGLEWVSRINYKGYNITYYADSVKGRFTISRDNSKNTLYLQMNSLRAEDTAVYYCAKSGSNSNNFFDYWGLGTLVTVSS
VL: B1 VL with T10N, D32Q, A34G, R39K, A50G, S53T, D57G, D70E, T72A, S93D
notes: as for B1
B8: 40511p1.1.H5 (scFv, V domains shown)
VH: B7 VH
VL: B1 VL with V29I, G30R, R39K, A50G, S52A, D57G, D60A, D70E, E81G, Y92N
notes: as for B1
B9: 40511p1.2.G10 (scFv, V domains shown)
VH: B7 VH
VL: B4 VL with V13L, P43A, S45R, D50G, G57D, D70E, R92I, T98S
notes: as for B1
B10: 40511p1.2.A8 (scFv, V domains shown)
VH: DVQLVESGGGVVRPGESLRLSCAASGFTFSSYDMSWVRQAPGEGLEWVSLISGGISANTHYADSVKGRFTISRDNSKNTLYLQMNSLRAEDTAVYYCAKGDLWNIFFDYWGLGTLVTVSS
VL: EIVLTQSPATLSVSPGERATFSCRASQNVRSYLAWYQQKPGQAPRLLIFNTVTRATGIPDRFSGSGSGTDFTLTISSLEPEDFAVYYCQQYYDWPPLTFGGGTKVEIK
notes: as for B1
B11: 40579p1.B8 (scFv, V domains shown)
VH: EVQLLESGGGLVQPGGSLRLSCAASGFTFSDYYMSWVRQAPGKGLEWVSGISMSSTIYYADSVKGRFTISRDNSKNTLYLQMNSLRAEDTAVYYCARHRSPYQYRSMDVWGQGTTVTVSS
VL: B4 VL with V13L, T28S, G30N, T53R, D70E, R92N
notes: as for B1
B12: 40579p1.C2 (scFv, V domains shown)
VH: EVQLLESGGDLVQPGGSLRLSCAASGFNFSSYWMSWVRQAPGKGLEWVSGISISYGGNAYYADSVKGRFTVSRDNSKNTLYLQMNSLRAEDTAVYYCGRDRSPYQYRSMDVWGQGTTVTVSS
VL: B4 VL with G9A, L21F, V29I, S31N, P43A, S45R, Y49F, D50S, G57D, R92N
notes: as for B1
B13: 40579p1.D1 (scFv, V domains shown)
VH: B12 VH with D10G, N28T, S31D, W33Y, G50S, N58T, A59T, V71I, G98A, Y106C
VL: B1 VL with T10S, G30N, R39K, D57G, D60A, D70E, Y92N, S93N
notes: as for B1
B14: 40579p1.D8 (scFv, V domains shown)
VH: B12 VH with D10G, N28T, S31D, W33Y, G50S, N58T, A59T, V71I, G98A, Y106C
VL: EIVLTQSPGTLSLSPGERATLSCRASQSIRSDLAWYQQKPGQAPRLLIYNTVTRATGVPDRFSGSGSGTEFTLTISSLQSEDFAVYYCQQYNSWPPLTFGGGTKVEIK
notes: as for B1

target: T1, His-tagged mouse B7-H3 (mouse, UniProt Q8VE98 29-244, limits assumed); assay: ELISA, coated His-tagged antigen, scFv-Fc 1 ug/ml
T1 construct: Bought His-tagged protein coated on the ELISA plate; also called mu B7-H3; murine B7-H3
T1 sequence (looked up): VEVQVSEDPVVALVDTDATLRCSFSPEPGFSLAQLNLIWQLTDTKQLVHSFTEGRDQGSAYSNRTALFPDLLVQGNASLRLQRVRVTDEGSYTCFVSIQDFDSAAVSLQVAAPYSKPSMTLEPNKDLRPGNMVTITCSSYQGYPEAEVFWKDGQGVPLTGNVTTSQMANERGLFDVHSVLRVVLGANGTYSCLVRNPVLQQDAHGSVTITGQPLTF

Row | Binder | ELISA OD450 @ 1 ug/ml [OD450]
1 | B1 | 0.051
2 | B2 | 0.891
3 | B3 | 0.771
4 | B4 | 1.7
5 | B5 | 1.67
6 | B6 | 1.55
7 | B7 | 0.138
8 | B8 | 0.758
9 | B9 | 1.45
10 | B10 | 0.055
11 | B11 | 1.98
12 | B12 | 1.82
13 | B13 | 0.283
14 | B14 | 0.48

target: T2, His-tagged human B7-H3 (human, UniProt Q5ZPR3-2 29-245, limits assumed); assay: ELISA, coated His-tagged antigen, scFv-Fc 1 ug/ml
T2 construct: Bought His-tagged protein coated on the ELISA plate; also called hu B7-H3; CD276
T2 sequence (looked up): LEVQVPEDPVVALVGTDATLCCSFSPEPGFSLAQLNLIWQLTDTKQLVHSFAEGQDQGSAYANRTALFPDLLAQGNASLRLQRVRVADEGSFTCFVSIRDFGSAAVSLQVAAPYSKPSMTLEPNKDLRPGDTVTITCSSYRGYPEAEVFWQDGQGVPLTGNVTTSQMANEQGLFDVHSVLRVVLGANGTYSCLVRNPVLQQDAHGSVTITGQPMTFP

Row | Binder | ELISA OD450 @ 1 ug/ml [OD450]
15 | B2 | 2.13
16 | B3 | 2.14
17 | B4 | 2.13
18 | B5 | 2.2
19 | B6 | 2.06
20 | B7 | 0.641
21 | B8 | 1.71
22 | B9 | 1.98
23 | B10 | 2.11
24 | B11 | 2.21
25 | B12 | 2.12
26 | B13 | 0.492
27 | B14 | 1.01

Target: T3, His-tagged cynomolgus monkey B7-H3 (cynomolgus monkey)
T3 chain: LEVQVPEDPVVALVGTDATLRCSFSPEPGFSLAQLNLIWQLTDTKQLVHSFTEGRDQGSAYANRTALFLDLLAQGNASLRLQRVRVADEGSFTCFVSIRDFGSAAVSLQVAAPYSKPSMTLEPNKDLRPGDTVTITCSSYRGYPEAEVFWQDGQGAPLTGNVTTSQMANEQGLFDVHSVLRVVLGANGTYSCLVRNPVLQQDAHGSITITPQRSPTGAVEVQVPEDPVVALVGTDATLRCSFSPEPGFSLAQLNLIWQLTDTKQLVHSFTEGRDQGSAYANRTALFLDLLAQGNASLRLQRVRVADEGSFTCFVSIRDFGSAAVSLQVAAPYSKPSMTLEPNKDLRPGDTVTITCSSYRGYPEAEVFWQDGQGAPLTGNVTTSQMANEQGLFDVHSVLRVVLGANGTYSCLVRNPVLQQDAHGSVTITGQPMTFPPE
Assay: ELISA, coated His-tagged antigen, scFv-Fc 1 ug/ml

Row | Binder | ELISA OD450 @ 1 ug/ml [OD450]
28 | B1 | 0.769
29 | B2 | 2.02
30 | B3 | 2.12
31 | B4 | 2.34
32 | B5 | 2.28
33 | B6 | 2.3
34 | B7 | 2.03
35 | B8 | 2.22
36 | B9 | 2.37
37 | B10 | 2.34
38 | B11 | 2.08
39 | B12 | 2.18
40 | B13 | 1.33
41 | B14 | 1.87

target: T4, B7-H3 on B7-H3-expressing CHO cells (Genescript) (UniProt Q5ZPR3 29-534, limits assumed); assay: flow cytometry, B7-H3-expressing CHO cells, 10 ug/ml
T4 construct: whole, on cells; also called CHO-K1/B7-H3; MFI B7-H3
T4 sequence (looked up): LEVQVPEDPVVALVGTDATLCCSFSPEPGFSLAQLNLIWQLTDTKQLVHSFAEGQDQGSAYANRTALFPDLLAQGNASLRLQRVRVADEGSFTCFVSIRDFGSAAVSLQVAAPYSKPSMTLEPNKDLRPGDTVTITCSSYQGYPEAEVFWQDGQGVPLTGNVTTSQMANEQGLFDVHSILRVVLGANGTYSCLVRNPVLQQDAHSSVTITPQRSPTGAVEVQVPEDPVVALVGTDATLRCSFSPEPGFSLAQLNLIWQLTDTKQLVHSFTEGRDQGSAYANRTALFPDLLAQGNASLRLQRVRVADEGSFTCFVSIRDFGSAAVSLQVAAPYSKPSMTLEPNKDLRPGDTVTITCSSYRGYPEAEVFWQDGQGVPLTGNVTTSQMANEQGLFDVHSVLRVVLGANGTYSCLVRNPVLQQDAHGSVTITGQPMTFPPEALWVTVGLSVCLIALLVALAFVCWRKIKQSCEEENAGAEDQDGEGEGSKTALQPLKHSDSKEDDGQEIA
How it was run: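 Antibodies at 10 μg/ml in PBS/1% BSA/0.01% NaN3 incubated 60 min on ice with ~1.5e5 cells; parental CHO cells as counterscreen. After washing, read by flow cytometry; values are mean fluorescent intensities (MFI).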

Row | Binder | MFI @ 10 ug/ml [MFI]
42 | B1 | 11600
43 | B2 | 79200
44 | B3 | 67900
45 | B4 | 77200
46 | B5 | 74500
47 | B6 | 82700
48 | B7 | 22100
49 | B8 | 62200
50 | B9 | 78500
51 | B10 | 25400
52 | B11 | 85500
53 | B12 | 75400
54 | B13 | 36000
55 | B14 | 40800

target: T2, His-tagged human B7-H3; assay: ELISA OD450 on hu B7-H3 over OD450 on mu B7-H3

Row | Binder | hu:mu ratio
56 | B2 | 2.39
57 | B3 | 2.78
58 | B4 | 1.25
59 | B5 | 1.32
60 | B6 | 1.33
61 | B7 | 4.64
62 | B8 | 2.25
63 | B9 | 1.37
64 | B10 | 38.4
65 | B11 | 1.12
66 | B12 | 1.16
67 | B13 | 1.74
68 | B14 | 2.1

target: T1, His-tagged mouse B7-H3; assay: ELISA, coated His-tagged antigen

Row | Binder | binding result
69 | B1 | no binding (tested: 1 ug/ml)
70 | B10 | no binding (tested: 1 ug/ml)
